Data published in PMC3913574.

Target: T1, recombinant CADM1-EC-Fc protein consisting of the extracellular fragment domain of CADM1 fused to the Fc region of mouse IgG (UniProt Q9BY67)
T1 sequence: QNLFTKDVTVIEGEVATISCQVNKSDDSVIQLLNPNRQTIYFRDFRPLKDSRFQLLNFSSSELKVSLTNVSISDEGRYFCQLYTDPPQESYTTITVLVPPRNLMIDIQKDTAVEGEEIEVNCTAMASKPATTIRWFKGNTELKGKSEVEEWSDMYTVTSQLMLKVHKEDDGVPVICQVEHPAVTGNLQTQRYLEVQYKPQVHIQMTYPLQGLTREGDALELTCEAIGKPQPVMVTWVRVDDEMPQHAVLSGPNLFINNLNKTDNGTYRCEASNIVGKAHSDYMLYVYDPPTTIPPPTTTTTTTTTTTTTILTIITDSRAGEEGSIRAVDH

B1: CADM1-GFP on MDCK cells (MDCK+CADM1-GFP) (natural protein)
chain: QNLFTKDVTVIEGEVATISCQVNKSDDSVIQLLNPNRQTIYFRDFRPLKDSRFQLLNFSSSELKVSLTNVSISDEGRYFCQLYTDPPQESYTTITVLVPPRNLMIDIQKDTAVEGEEIEVNCTAMASKPATTIRWFKGNTELKGKSEVEEWSDMYTVTSQLMLKVHKEDDGVPVICQVEHPAVTGNLQTQRYLEVQYKPQVHIQMTYPLQGLTREGDALELTCEAIGKPQPVMVTWVRVDDEMPQHAVLSGPNLFINNLNKTDNGTYRCEASNIVGKAHSDYMLYVYDPPTTIPPPTTTTTTTTTTTTTILTIITDSRAGEEGSIRAVDHAVIGGVVAVVVFAMLCLLIILGRYFARHKGTYFTHEAKGADDAADADTAIINAEGGQNNSEEKKEYFI
With B1 the cell spreading assay: average surface area of MDCK+CADM1-GFP cells on CADM1-EC-Fc-coated glass against the same cells on control IgG was 1.8 fold.
